“And” between values parts separate entries of the source, which are not always exact repeats. Equal values may be shown once.
B1: vimentin rod domain (residues 93-404) (domain or fragment)
chain: not shown
notes: vimentin, human, rod domain, residues 93-404; theoretical monomer mass printed as 36.9 kDa; also called rod fragment; rod construct; source: denatured in 8 M urea and re-natured by step-wise dialysis before analysis
B2: vimentin ΔNrod (coil1B and coil2, residues 150-404) (domain or fragment)
chain: not shown
notes: vimentin, human, coil1B and coil2 domains, residues 150-404; theoretical monomer mass printed as 30.2 kDa; source: denatured in 8 M urea and re-natured by step-wise dialysis before analysis
B3: vimentin coil1B construct (residues 150-249) (domain or fragment)
chain: not shown
notes: vimentin, human, coil1B, residues 150-249; theoretical monomer mass printed as 12.1 kDa; also called coil1B fragment; source: denatured in 8 M urea and re-natured by step-wise dialysis before analysis

How the values were obtained:
[1] = molecular target: the molecule itself; experiment: SEC-MALS; Superdex 200 Increase 10/300 GL, HS buffer (10 mM HEPES, 150 mM NaCl, pH 7.5) after salt jump and 1 h at 37 °C; injected 0.79 mg/mL rod, 0.55 mg/mL ΔNrod, 1.52 mg/mL coil1B
[2] = molecular target: the molecule itself; experiment: cross-linking; truncated fragments 0.4 mg/mL in HS conditions (10 mM HEPES, 150 mM NaCl, pH 7.5); DSG and DSBU; reducing SDS-PAGE

Row | Protein | stoichiometry N [1] | stoichiometry N [2]
1 | B1 | 4 | 4
2 | B2 | 2 and 4 | 2
3 | B3 | 2 | 2

From PMC10232555, “Molecular structure of soluble vimentin tetramers” (Scientific Reports, 2023)
